Reference: US20240189442

Legend:
SEQ ID NO: 52 = test system: T1, SEQ ID NO: 52
T1 sequence: LGGSGRSANAILE

SEQ ID NO: 54 = test system: T2, SEQ ID NO: 54
T2 sequence: GSGRNAQV

SEQ ID NO: 50 = test system: T3, SEQ ID NO: 50
T3 sequence: LSGRSDNH

SEQ ID NO: 53 = test system: T4, SEQ ID NO: 53
T4 sequence: LGGSGRNAQVRLE

SEQ ID NO: 51 = test system: T5, SEQ ID NO: 51
T5 sequence: SGRSA

Chain of Tissue-type Plasminogen Activator (tPA) (P00750 36-562): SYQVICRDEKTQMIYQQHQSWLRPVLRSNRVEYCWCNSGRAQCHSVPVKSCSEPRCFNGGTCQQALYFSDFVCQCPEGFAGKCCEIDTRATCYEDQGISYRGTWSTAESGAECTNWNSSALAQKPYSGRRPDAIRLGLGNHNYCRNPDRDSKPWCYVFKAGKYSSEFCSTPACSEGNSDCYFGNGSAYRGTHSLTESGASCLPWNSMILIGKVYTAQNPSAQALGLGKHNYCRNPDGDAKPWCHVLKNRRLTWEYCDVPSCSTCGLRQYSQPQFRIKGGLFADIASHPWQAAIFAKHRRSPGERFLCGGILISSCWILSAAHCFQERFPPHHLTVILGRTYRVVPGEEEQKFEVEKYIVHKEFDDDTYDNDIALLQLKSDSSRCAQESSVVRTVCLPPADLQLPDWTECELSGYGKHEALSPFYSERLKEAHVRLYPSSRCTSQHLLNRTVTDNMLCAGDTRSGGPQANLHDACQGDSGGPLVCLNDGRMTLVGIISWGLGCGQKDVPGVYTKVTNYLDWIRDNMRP

Substance	Fold of Increase, fluorescence intensity; tPA digestion at 2.25 × 10^-2 mg/mL (SEQ ID NO: 52)	Fold of Increase, fluorescence intensity; tPA digestion at 7.5 × 10^-3 mg/mL (SEQ ID NO: 52)	Fold of Increase, fluorescence intensity; tPA digestion at 2.25 × 10^-2 mg/mL (SEQ ID NO: 54)	Fold of Increase, fluorescence intensity; tPA digestion at 7.5 × 10^-3 mg/mL (SEQ ID NO: 54)	Fold of Increase, fluorescence intensity; tPA digestion at 2.25 × 10^-2 mg/mL (SEQ ID NO: 50)	Fold of Increase, fluorescence intensity; tPA digestion at 7.5 × 10^-3 mg/mL (SEQ ID NO: 50)	Fold of Increase, fluorescence intensity; tPA digestion at 2.25 × 10^-2 mg/mL (SEQ ID NO: 53)	Fold of Increase, fluorescence intensity; tPA digestion at 7.5 × 10^-3 mg/mL (SEQ ID NO: 53)	Fold of Increase, fluorescence intensity; tPA digestion at 2.25 × 10^-2 mg/mL (SEQ ID NO: 51)	Fold of Increase, fluorescence intensity; tPA digestion at 7.5 × 10^-3 mg/mL (SEQ ID NO: 51)	Fold of Increase, fluorescence intensity (FRET cleavage assay) (SEQ ID NO: 52)	Time to Reach Plateau (hr), fluorescence intensity (FRET cleavage assay) (SEQ ID NO: 52)	Fold of Increase, fluorescence intensity (FRET cleavage assay) (SEQ ID NO: 54)	Time to Reach Plateau (hr), fluorescence intensity (FRET cleavage assay) (SEQ ID NO: 54)	Fold of Increase, fluorescence intensity (FRET cleavage assay) (SEQ ID NO: 50)	Time to Reach Plateau (hr), fluorescence intensity (FRET cleavage assay) (SEQ ID NO: 50)	Fold of Increase, fluorescence intensity (FRET cleavage assay) (SEQ ID NO: 53)	Time to Reach Plateau (hr), fluorescence intensity (FRET cleavage assay) (SEQ ID NO: 53)	Fold of Increase, fluorescence intensity (FRET cleavage assay) (SEQ ID NO: 51)	Time to Reach Plateau (hr), fluorescence intensity (FRET cleavage assay) (SEQ ID NO: 51)
Tissue-type Plasminogen Activator (tPA)	2.1 fold	1.2 fold	2.6 fold	0.91 fold	1.1 fold	0.63 fold	1.3 fold	0.73 fold	5.4 fold	2.1 fold	–	–	–	–	–	–	–	–	–	–
Urokinase-type Plasminogen Activator (uPA)	–	–	–	–	–	–	–	–	–	–	3.1 fold	1.4 h	4.7 fold	1.4 h	4.9 fold	1.7 h	3 fold	1.6 h	9.6 fold	1.8 h
